According to patent US9150655B2, “Anti-C-met antibody and methods of use thereof” (ACADEMIA SINICA, priority 2010, dated 2015):

Assays:
VEGF-stimulated HUVECs = assay: FACS of scFv binding to VEGF-stimulated HUVECs; format: cell-based, human
Method: (§1) The binding activities of anti-c-Met scFvs to endogenous c-Met were analyzed in cancer cells by ELISA (FIG. 9, panel A). […] Normal mouse IgG was used as a control antibody. FACS analysis was performed to verify that […] anti-c-Met scFvs also bound VEGF-stimulated HUVECs. Anti-CD31 antibody and control scFv were used a positive and negative control, respectively (FIG. 9, panel B).

c-Met = molecular target: T1, c-Met (Homo sapiens, UniProt P08581); assay: HGF-induced c-Met phosphorylation in A549 cells (Western blot); format: cell-based; settings: A549 cells co-treated with HGF and S1 at 37° C. for 15 min; relative to cells without S1
T1 construct: endogenous in cells; host or cells: A549
Method: Since the anti-c-Met scFv S1 presented superiorly competitive capability, whether S1 would antagonize HGF to activate c-Met in cancer cells was examined. A549 cells were co-treated with HGF and S1 at 37° C. for 15 min. Total cell lysate was subjected to Western blotting using anti-tyrosine-phosphorylated c-Met antibody and an antibody against the c-Met β-chain (c-Met). Quantification of phosphorylated c-Met was based on luminescence intensity and normalized with total c-Met.

c-MetF932-Fc protein = molecular target: T2, c-MetF932-Fc protein (Homo sapiens, UniProt P08581); assay: Competitive ELISA: soluble scFv inhibit HGF binding to immobilized c-Met protein
T2 construct: DNA fragments encoding amino acid residues 1 to 932 and 1 to 567 of c-Met were amplified by PCR; made in house; host or cells: 293T cells, transient transfection, protein G purification from supernatant
Method: To monitor inhibition effect of scFv, we coated the c-MetF932-Fc protein on a 96-well plate and blocked nonspecific binder with 3% BSA in PBS. 1 nM human HGF (R&D) plus varying concentrations of anti-c-Met scFv or normal mouse IgG were applied to the wells. The amount of HGF bound to c-Met was determined using goat anti-human HGF (R&D), following incubation of HRP-labeled mouse anti-goat IgG (Jackson ImmunoResearch) and OPD substrate (Sigma) plus H2O2. The absorbance was measured with 490 nm using a microplate reader. Inhibition percentage was calculated by the following equation: [(the absorbance of HGF bound without competitor)−(the absorbance of HGF bound with competitor)]/(the absorbance of HGF bound without competitor)×100%.
To test whether the three anti-c-Met scFvs could inhibit HGF binding to c-Met, the human lung cancer cell line H1993 was chosen to undergo competition ELISA (Lutterbach B et al. (2007) Cancer Res 67:2081-2088). […] HGF binding to H1993 cells without competitors was considered 100%. H1993 is known to express a high level of c-Met. When H1993 cells were incubated with HGF in the presence of the phage clones, the binding of HGF to H1993 cells was diminished by more than 90% by the anti-c-Met scFv PC1. PC20 inhibited more than 50% of HGF binding to c-Met (FIG. 2, panel A). The competitive inhibition of HGF by different concentrations of soluble scFvs was also tested. Normal mouse IgG (NMIgG) was used as a negative control. HGF binding to immobilized c-Met protein without competitors was considered 100%.

c-Met932-Fc protein = molecular target: T3, c-Met932-Fc protein (Homo sapiens, UniProt P08581); assay: Binding kinetics of anti-c-Met scFv by SPR (BIAcore)
T3 construct: DNA fragments encoding amino acid residues 1 to 932 and 1 to 567 of c-Met were amplified by PCR; made in house; host or cells: 293T cells, transient transfection, protein G purification from supernatant
Method: The affinity and kinetics of anti-c-Met scFv were measured by SRP in BIAcore X (GE healthcare). In BIAcore flowcell, 30 μg/ml of c-MetF932-Fc protein was coupled to EDC- and NHS-activated CM5 sensor chip followed by blocking with ethanolamine according to manufacturer's directions. Associated and dissociated phases were monitored for 3 and 5 min, respectively, under continuous flow of 30 μl/min using scFv concentrations ranging 5 to 200 nM. Regeneration was performed by injection of regenerate buffer (0.2 M NaCl, 10 mM glycine, pH 2.7). To determine binding constants, the sensorgrams were fit globally to a sample 1:1 interaction model using BIAevaluation software (GE healthcare).
Binding kinetic constants (Kon and Koff) and affinity of each soluble scFv for c-Met932-Fc protein were measured by Surface Plasmon Resonance (SPR).
Kon and Koff were measured by SRP in a BIAcore using purified scFvs, and the Kd was calculated by BIAevaluation software.

c-Met567-Fc protein = molecular target: T4, c-Met567-Fc protein (Homo sapiens, UniProt P08581); assay: Epitope ELISA on c-Met932-Fc and c-Met567-Fc; format: binding; settings: immobilized recombinant proteins
T4 construct: DNA fragments encoding amino acid residues 1 to 932 and 1 to 567 of c-Met were amplified by PCR; made in house; host or cells: 293T cells, transient transfection, protein G purification from supernatant
Method: Therefore, binding epitopes of anti-c-Met scFvs localized within HGF binding domain of c-Met were investigated. The binding ability of anti-c-Met scFvs was examined for c-Met932-Fc protein including whole extracellular domain of c-Met, and c-Met567-Fc protein containing Sema and PSI domain, both of which have been defined as HGF binding regions (FIG. 2, panel C). The c-Met recombinant proteins were immobilized on titer wells, and incubated with anti-c-Met scFvs. Anti-c-Met polyclonal antibody and anti-E tag antibody was used as a positive and negative control, respectively. […] The binding intensity of S1 for c-Met932-Fc was similar to that for c-Met567-Fc.

[1] = molecular target: T5, endogenous c-Met on H460 cells (Homo sapiens, UniProt P08581); assay: FACS of scFv binding to H460 and c-Met knockdown H460 cells; format: cell-based
T5 construct: endogenous in cells; host or cells: H460 and MET-KD H460
Method: To further confirm that the anti-c-Met scFv would bind specifically to endogenous c-Met on human cancer cells, H460 cells and c-Met knockdown H460 cells were stained with anti-c-Met scFv, either S1 or S20, and FACS analysis was carried out (FIG. 10, panel B).

[2] = molecular target: T6, endogenous c-Met in cancer cells (Homo sapiens, UniProt P08581); assay: ELISA of scFv binding to human cancer cell lines; format: cell-based
T6 construct: endogenous in cells
Method: as §1

[3] = purified scFv, c-MetF932-Fc on CM5 chip

T3 sequence (P08581 25-307): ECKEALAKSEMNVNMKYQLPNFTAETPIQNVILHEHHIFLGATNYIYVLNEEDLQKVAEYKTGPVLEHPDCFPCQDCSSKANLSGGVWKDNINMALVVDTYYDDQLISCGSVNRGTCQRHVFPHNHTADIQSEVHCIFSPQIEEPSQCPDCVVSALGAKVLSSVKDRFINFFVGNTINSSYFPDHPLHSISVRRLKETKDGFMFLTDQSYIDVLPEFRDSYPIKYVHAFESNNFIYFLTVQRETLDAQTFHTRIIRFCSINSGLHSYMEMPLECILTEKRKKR
T3 sequence (P08581 308-932): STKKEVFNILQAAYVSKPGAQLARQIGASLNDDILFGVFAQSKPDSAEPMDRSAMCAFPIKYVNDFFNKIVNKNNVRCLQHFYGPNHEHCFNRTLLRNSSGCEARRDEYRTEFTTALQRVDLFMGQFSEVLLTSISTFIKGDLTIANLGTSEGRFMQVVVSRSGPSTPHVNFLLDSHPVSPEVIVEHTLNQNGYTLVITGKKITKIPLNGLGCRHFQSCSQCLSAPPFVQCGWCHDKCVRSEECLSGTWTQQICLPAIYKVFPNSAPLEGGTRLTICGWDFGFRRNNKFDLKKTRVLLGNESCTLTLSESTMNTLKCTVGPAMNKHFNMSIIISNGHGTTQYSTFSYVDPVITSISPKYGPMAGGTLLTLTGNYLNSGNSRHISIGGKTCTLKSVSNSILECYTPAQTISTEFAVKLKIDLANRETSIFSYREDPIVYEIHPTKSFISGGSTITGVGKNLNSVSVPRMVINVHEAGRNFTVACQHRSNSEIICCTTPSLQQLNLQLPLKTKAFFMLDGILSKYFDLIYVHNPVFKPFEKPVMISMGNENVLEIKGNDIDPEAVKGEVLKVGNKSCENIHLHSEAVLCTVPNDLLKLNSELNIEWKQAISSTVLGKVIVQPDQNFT
T2 sequence (P08581 25-307 limits assumed): as the sequence (P08581 25-307) above
T2 sequence (P08581 308-932 limits assumed): as the sequence (P08581 308-932) above
T6 sequence (P08581 25-1390): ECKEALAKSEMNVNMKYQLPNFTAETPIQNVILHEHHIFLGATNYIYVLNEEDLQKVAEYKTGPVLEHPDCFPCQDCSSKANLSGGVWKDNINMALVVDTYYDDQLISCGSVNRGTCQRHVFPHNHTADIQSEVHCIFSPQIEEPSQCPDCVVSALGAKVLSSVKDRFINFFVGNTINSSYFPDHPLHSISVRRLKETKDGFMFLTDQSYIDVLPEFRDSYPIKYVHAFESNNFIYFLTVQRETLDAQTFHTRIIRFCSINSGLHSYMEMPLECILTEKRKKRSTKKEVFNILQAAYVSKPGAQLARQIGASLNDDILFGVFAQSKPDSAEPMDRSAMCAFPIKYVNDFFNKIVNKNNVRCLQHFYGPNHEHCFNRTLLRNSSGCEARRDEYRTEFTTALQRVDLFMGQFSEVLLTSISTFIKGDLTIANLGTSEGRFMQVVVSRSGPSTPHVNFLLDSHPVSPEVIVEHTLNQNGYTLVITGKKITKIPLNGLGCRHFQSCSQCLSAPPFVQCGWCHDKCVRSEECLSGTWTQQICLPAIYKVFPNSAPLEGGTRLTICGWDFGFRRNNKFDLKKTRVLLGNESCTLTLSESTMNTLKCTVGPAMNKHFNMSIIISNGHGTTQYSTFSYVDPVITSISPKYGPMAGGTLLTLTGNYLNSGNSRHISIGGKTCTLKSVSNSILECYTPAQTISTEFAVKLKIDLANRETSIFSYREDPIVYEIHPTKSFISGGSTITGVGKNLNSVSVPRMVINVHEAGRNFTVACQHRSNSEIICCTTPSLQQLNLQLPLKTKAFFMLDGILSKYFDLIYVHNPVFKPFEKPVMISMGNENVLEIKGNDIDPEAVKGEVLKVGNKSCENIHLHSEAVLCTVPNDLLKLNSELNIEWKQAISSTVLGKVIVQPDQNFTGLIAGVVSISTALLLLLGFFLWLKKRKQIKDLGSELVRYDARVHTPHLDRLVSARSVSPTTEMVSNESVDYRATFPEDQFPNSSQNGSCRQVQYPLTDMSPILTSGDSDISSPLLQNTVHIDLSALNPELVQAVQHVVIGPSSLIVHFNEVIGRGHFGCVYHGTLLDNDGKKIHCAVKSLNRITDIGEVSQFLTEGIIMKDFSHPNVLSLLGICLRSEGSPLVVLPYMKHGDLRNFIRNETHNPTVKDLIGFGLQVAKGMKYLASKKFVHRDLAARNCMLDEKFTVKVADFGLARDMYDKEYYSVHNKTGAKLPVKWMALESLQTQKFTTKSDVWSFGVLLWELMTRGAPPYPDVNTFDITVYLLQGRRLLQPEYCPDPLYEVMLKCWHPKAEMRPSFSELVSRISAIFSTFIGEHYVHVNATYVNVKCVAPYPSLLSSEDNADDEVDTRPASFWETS
T5 sequence (P08581 25-1390): as above
T4 sequence (P08581 25-567): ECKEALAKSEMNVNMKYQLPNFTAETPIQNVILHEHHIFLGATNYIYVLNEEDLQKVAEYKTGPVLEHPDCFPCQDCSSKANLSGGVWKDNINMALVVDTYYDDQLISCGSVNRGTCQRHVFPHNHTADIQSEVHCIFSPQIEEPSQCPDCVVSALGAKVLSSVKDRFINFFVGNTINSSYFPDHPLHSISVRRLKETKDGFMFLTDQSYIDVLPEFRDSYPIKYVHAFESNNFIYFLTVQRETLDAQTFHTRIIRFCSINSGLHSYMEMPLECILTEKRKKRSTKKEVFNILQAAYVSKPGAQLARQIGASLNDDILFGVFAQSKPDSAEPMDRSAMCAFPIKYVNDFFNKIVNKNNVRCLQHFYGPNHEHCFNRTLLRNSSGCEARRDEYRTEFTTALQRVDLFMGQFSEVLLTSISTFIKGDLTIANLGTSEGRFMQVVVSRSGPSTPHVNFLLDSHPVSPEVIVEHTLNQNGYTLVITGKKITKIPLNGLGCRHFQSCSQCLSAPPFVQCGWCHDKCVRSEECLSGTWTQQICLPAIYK

B1: S1: soluble anti-c-Met scFv corresponding to phage clone PC1; VH/VL sequences in Table 1 (protein)
scFv: MAQVQLQQSGPGLVKPSQTLSLTCDISGDSVSSNSAAWNWIRQSPSRGLEWLGRTYYRSRWYNEYAVSVRGRISINAETSKNQFSLQLNSVTPEDTAIYYCARAGFCSGGNCYPGSEDAFDLWGQGTMVTVGGGGSGGGGSGGGGSDVVMTQSPPSLSVSVGDRVTITCRASQDITNDLNWYQQKPGKAPQLLIYHASELETGVPSRFSGSGFGTDFTLTISSLQPADIATYYCQQYDDLPLTFGGGTKVEIKR
modifications: left off: small tags and cut ends
B1 was tested, and the “Binding to VEGF-stimulated HUVECs” value (VEGF-stimulated HUVECs) was “bound”, the “Inhibition of HGF-induced c-Met phosphorylation” value (c-Met) was 65.7% and the IC50 (c-MetF932-Fc protein; 1 nM human HGF, immobilized c-Met protein, soluble scFv) was 27.4 nM. For the same molecule, the “Inhibition of binding activity of HGF to c-Met” value (c-MetF932-Fc protein; different concentrations of soluble scFv) was “dose-dependently inhibited”, the Kd (c-Met932-Fc protein; purified scFv 5 to 200 nM, c-MetF932-Fc coupled to CM5 chip, Kd calculated by BIAevaluation software) was 6.82 nM and the Koff (c-Met932-Fc protein; [3]) was 0.00134 s⁻¹. For the same molecule, the Kon (c-Met932-Fc protein; [3]) was 215000 M⁻¹ s⁻¹, the “Binding to c-Met567-Fc compared to c-Met932-Fc” value (c-Met567-Fc protein) was “similar” and the “Binding activity in c-Met knockdown H460 cells” value ([1]; c-Met knockdown H460) was “dramatically decreased”. For the same molecule, the “Binding to H460 cells” value ([1]; c-Met wildtype H460) was “able to bind”, the “Reactivity with A498, U2OS and NNM cells” value ([2]; A498, U2OS, NNM cells) was “did not react” and the “Binding to human cancer cell lines” value ([2]; SKOV3, Mahlavu, SAS, PC3, MDA-MB-231, HCT116, Paca-2, NPC-TW04, H1993 cells, vs control antibody) was “found to bind”.
